{
  "source": "paper PMC10944485",
  "about": "“Structure of full-length ERGIC-53 in complex with MCFD2 for cargo transport” (Nature Communications, 2024)",
  "molecules": {"B1": {"name": "full-length human ERGIC-53 with a C-terminal PA tag, P49257 31-510 (receptor)", "chain": "DGVGGDPAVALPHRRFEYKYSFKGPHLVQSDGTVPFWAHAGNAIPSSDQIRVAPSLKSQRGSVWTKTKAAFENWEVEVTFRVTGRGRIGADGLAIWYAENQGLEGPVFGSADLWNGVGIFFDSFDNDGKKNNPAIVIIGNNGQIHYDHQNDGASQALASCQRDFRNKPYPVRAKITYYQNTLTVMINNGFTPDKNDYEFCAKVENMIIPAQGHFGISAATGGLADDHDVLSFLTFQLTEPGKEPPTPDKEISEKEKEKYQEEFEHFQQELDKKKEEFQKGHPDLQGQPAEEIFESVGDRELRQVFEGQNRIHLEIKQLNRQLDMILDEQRRYVSSLTEEISKRGAGMPGQHGQITQQELDTVVKTQHEILRQVNEMKNSMSETVRLVSGMQHPGSAGGVYETTQHFIDIKEHLHIVKRDIDNLVQRNMPSNEKPKCPELPPFPSCLSTVHFIIFVVVQTVLFIGYIMYRSQQEAAAKKFF"}, "B2": {"name": "human MCFD2 lumen domain (residues 27-146) (domain or fragment, UniProt Q8NI22 27-146, looked up)", "chain": "EEPAASFSQPGSMGLDKNTVHDQEHIMEHLEGVINKPEAEMSPQELQLHYFKMHDYDGNNLLDGLELSTAITHVHKEEGSEQAPLMSEDELINIIDGVLRDDDKNNDGYIDYAEFAKSLQ", "notes": "MCFD2, human, lumen domain, residues 27-146, in pET15b; Thrombin cleavage of the pET15b His tag probably leaves a few vector residues at the N-terminus (surmised); also called multiple coagulation factor deficiency 2; source: E. coli BL21 (DE3), purified (Ni-NTA, MonoQ, thrombin cleavage, SEC); not shown: His tag, N-terminal, cleaved"}},
  "key": {"[1]": {"biological_target": "ERGIC-53 ΔH34 mutant with a C-terminal FLAG (human) (UniProt P49257)", "assay": "cryo-EM structure; ERGIC-53 ΔH34-MCFD2 complex, 1.7 mg/ml"}, "[2]": {"biological_target": "T1, full-length human ERGIC-53 with a C-terminal PA tag (human), P49257", "T1 chain": "B1 chain", "assay": "SEC-MALS; ERGIC-53 at weakly acidic Golgi pH (pH 6.5)", "settings": "remark: other sources report otherwise"}, "[3]": {"biological_target": "T1, full-length human ERGIC-53 with a …", "assay": "cryo-EM structure; full-length ERGIC-53 with MCFD2, 4-5 mg/ml in GDN with 3 mM fluorinated Fos-Choline-8; head region forms A and B, four substates, and full-length map", "settings": "remark: other sources report otherwise"}, "[4]": {"biological_target": "T1, full-length human ERGIC-53 with a …", "assay": "SEC-MALS; Superdex 200 Increase 3.2/300; 20 mM Tris-HCl pH 7.5, 150 mM NaCl, 10 mM CaCl2, 0.02% GDN; samples 1.6-1.7 mg/ml; conjugate analysis (MALS-UV-RI); ERGIC-53 alone and its complex with MCFD2", "settings": "remark: other sources report otherwise"}, "[5]": {"biological_target": "T2, full-length human ERGIC-53 with a C-terminal PA tag (human, UniProt P49257 31-510)", "T2 construct": "ERGIC-53 (LMAN1), human, full length; cDNA subcloned from a HeLa cDNA library; Eluted from the beads with PA peptide; no step that removes the tag is described; Treated with 1 mM diamide before SEC; mixture of covalent (disulfide-linked) and noncovalent tetramers; The CRD is numbered from residue 31, so the signal peptide is probably cut off in the cells (surmised); also called LMAN1; P58", "T2 sequence (looked up)": "B1 chain", "assay": "SEC-MALS; Superdex 200 Increase 3.2/300; 20 mM Tris-HCl pH 7.5, 150 mM NaCl, 10 mM CaCl2, 0.02% GDN; samples 1.6-1.7 mg/ml; conjugate analysis (MALS-UV-RI); ERGIC-53 alone and its complex with MCFD2", "settings": "both partners purified"}},
  "data": [
    {"molecule": "ERGIC-53 ΔH34 mutant with a C-terminal FLAG (from UniProt P49257 31-510) (receptor)", "values": [
      {"measurement": "stoichiometry N", "setting": "[1]", "value": 4}
    ]},
    {"molecule": "B1", "values": [
      {"measurement": "stoichiometry N", "setting": "[2]", "value": 4},
      {"measurement": "stoichiometry N", "setting": "[3]", "value": 4},
      {"measurement": "stoichiometry N", "setting": "[4]", "value": 4}
    ]},
    {"molecule": "B2", "values": [
      {"measurement": "stoichiometry N", "setting": "[5]", "value": 1}
    ]}
  ]
}
